# Test results: patent US20240210401A1, “METHOD OF USING PACAP AND VIP PEPTIDES FOR DETECTING SHED OR CIRCULATING TUMOR CELLS IN BIOLOGICAL FLUIDS” (Thomas Jefferson University, priority 2013, published 2024)
# Biological target: T1, VPAC1 receptors expressed on the cell membrane of prostate cancer cells (Homo sapiens, UniProt P32241)
# T1 construct: VPAC1 receptors expressed on the cell membrane of prostate cancer cells; endogenous in cells; host or cells: prostate cancer cells cytospun from patients' urine
# T1 sequence (P32241 31-457): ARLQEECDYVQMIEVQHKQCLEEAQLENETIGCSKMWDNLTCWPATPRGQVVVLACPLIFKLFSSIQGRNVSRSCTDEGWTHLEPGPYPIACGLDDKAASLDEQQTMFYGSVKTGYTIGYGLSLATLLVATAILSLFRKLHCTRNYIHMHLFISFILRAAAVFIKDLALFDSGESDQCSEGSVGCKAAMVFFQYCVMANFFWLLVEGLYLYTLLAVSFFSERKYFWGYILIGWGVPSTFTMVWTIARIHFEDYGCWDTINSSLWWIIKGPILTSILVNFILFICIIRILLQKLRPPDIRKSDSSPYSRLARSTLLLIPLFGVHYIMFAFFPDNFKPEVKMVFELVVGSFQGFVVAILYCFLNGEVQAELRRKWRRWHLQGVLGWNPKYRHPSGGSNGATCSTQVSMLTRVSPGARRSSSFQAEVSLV
# Assay: Confocal imaging of cells from urine samples of prostate cancer patients
# Format: cell-based
# Source text: The PACAP peptide, […]γAba-Lys (R) (SEQ ID NO: 7), was synthesized on a Wang resin using an ABI 341A peptide synthesizer (Applied Biosystems, Foster City, CA). The 27-amino acid long PACAP sequence was then assembled by standard Fmoc chemistry and coupled with a free sulfhydryl group attached to the C-terminus. This C-terminal sulfhydryl group was then reacted with a maleimide functionalized NIR dye to yield TP4303.
# Urine samples from two patients, one with early phase prostate cancer and the other with advanced prostate cancer, were cytospinned, and cells were collected on glass slides. The cells were incubated with TP4303, washed with phosphate-buffered saline (PBS) and the slide was dried. The cells were treated with DAPI (4′,6-diamidino-2-phenylindole, a fluorescent stain that binds strongly to A-T rich regions in cellular DNA), a cover slip was placed on the sample and confocal microscopic analysis was performed (excitation, […]; emission, […]).
substance,measurement,setting,value
"His-Ser-Asp-Gly-Ile-Phe-Thr-Asp-Ser-Tyr-Ser-Arg-Tyr-Arg-Lys-Gln-Met-Ala-Val-Lys-Lys-Tyr-Leu-Ala-Ala-Val-Leu-γAba-Lys (R) (SEQ ID NO: 7) (HSDGIFTDSYSRYRKQMAVKKYLAAVLEK; maleimide NIR dye conjugated via C-terminal sulfhydryl; MOD_RES 28 4Abu) [TP4303, PACAP peptide with C-terminal sulfhydryl group reacted with a maleimide functionalized NIR dye]",interaction with epithelial cells,"epithelial cells in the urine samples, identified by DAPI, not expressing VPAC1",did not interact
same,interaction with sperm,"sperm in the urine sample, identified by DAPI, not expressing VPAC1",did not interact
same,binding to VPAC1 receptors on prostate cancer cells,"urine of two patients (early phase and advanced prostate cancer), confocal microscopy",bound
